Measured values from US20120282619.

What was measured:
[1] = target: T1, GTPase regulator associated with FAK (GRAF), Q9UNA1
T1 chain: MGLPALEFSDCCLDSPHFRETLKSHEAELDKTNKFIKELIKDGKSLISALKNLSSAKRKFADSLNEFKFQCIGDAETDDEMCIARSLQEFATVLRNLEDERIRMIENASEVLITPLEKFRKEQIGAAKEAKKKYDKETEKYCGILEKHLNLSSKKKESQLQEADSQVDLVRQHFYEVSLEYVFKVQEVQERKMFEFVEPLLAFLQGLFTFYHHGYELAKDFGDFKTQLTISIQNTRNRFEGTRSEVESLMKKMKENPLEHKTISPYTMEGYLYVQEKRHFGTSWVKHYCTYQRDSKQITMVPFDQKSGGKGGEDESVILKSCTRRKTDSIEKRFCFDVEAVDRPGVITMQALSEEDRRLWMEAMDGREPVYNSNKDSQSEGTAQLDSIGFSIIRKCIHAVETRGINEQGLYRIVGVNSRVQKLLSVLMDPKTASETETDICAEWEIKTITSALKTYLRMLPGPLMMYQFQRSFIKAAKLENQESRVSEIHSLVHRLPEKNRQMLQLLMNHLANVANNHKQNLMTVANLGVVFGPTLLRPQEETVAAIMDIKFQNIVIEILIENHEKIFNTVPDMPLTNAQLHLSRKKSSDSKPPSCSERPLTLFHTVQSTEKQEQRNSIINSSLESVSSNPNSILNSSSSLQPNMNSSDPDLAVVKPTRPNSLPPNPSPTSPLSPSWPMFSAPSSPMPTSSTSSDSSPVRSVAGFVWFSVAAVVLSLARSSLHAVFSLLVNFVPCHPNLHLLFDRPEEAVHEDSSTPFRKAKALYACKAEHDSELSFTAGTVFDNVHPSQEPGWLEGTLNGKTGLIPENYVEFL

p190RhoGAP, Q9NRY4 = target: T2, p190RhoGAP, Q9NRY4
T2 chain: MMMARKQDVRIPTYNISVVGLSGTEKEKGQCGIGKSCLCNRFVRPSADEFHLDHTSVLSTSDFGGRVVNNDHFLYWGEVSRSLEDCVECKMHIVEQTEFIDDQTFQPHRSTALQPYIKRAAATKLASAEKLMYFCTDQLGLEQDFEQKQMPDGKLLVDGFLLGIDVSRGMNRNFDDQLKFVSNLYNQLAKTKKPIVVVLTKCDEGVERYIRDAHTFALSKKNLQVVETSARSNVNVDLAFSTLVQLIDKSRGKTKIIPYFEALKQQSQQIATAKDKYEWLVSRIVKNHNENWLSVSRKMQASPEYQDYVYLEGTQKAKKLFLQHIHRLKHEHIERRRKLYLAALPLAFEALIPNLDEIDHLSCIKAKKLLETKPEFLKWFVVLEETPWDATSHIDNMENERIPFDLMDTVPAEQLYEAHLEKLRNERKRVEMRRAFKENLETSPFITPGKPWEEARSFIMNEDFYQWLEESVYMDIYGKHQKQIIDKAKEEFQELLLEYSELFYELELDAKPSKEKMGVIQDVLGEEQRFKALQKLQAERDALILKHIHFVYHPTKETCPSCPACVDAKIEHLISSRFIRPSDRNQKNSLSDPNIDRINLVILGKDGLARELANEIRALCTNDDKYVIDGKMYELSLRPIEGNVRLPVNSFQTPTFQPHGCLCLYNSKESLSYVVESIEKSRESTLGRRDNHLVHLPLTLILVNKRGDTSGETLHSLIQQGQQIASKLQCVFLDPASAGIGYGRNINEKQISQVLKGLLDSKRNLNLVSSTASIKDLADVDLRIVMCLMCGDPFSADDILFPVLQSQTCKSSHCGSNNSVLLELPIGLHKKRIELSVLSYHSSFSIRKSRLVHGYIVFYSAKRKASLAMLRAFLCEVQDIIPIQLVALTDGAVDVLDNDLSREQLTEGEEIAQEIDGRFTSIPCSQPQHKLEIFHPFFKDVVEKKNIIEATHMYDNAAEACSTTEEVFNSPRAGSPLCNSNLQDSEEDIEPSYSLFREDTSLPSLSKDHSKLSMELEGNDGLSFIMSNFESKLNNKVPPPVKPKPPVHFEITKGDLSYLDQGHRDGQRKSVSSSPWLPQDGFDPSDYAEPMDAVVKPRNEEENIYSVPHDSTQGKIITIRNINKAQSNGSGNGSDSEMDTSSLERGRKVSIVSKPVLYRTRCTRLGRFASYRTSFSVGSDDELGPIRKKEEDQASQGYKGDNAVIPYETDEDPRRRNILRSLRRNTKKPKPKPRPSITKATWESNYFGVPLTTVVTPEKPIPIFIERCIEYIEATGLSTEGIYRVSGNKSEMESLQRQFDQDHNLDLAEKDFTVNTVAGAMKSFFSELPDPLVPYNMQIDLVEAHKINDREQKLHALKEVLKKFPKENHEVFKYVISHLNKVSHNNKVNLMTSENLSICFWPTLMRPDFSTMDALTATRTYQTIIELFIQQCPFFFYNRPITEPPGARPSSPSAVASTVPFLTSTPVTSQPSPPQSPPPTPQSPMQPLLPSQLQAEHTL

B1: focal adhesion kinase (FAK) (protein)
chain: AAAYLDPNLNHTPNSSTKTHLGTGMERSPGAMERVLKVFHYFESNSEPTTWASIIRHGDATDVRGIIQKIVDSHKVKHVACYGFRLSHLRSEEVHWLHVDMGVSSVREKYELAHPPEEWKYELRIRYLPKGFLNQFTEDKPTLNFFYQQVKSDYMLEIADQVDQEIALKLGCLEIRRSYWEMRGNALEKKSNYEVLEKDVGLKRFFPKSLLDSVKAKTLRKLIQQTFRQFANLNREESILKFFEILSPVYRFDKECFKCALGSSWIISVELAIGPEEGISYLTDKGCNPTHLADFTQVQTIQYSNSEDKDRKGMLQLKIAGAPEPLTVTAPSLTIAENMADLIDGYCRLVNGTSQSFIIRPQKEGERALPSIPKLANSEKQGMRTHAVSVSETDDYAEIIDEEDTYTMPSTRDYEIQRERIELGRCIGEGQFGDVHQGIYMSPENPALAVAIKTCKNCTSDSVREKFLQEALTMRQFDHPHIVKLIGVITENPVWIIMELCTLGELRSFLQVRKYSLDLASLILYAYQLSTALAYLESKRFVHRDIAARNVLVSSNDCVKLGDFGLSRYMEDSTYYKASKGKLPIKWMAPESINFRRFTSASDVWMFGVCMWEILMHGVKPFQGVKNNDVIGRIENGERLPMPPNCPPTLYSLMTKCWAYDPSRRPRFTELKAQLSTILEEEKAQQEERMRMESRRQATVSWDSGGSDEAPPKPSRPGYPSPRSSEGFYPSPQHMVQTNHYQVSGYPGSHGITAMAGSIYPGQASLLDQTDSWNHRPQEIAMWQPNVEDSTVLDLRGIGQVLPTHLMEERLIRQQQEMEEDQRWLEKEERFLKPDVRLSRGSIDREDGSLQGPIGNQHIYQPVGKPDPAAPPKKPPRPGAPGHLGSLASLSSPADSYNEGVKLQPQEISPPPTANLDRSNDKVYENVTGLVKAVIEMSSKIQPAPPEEYVPMVKEVGLALRTLLATVDETIPLLPASTHREIEMAQKLLNSDLGELINKMKLAQQYVMTSLQQEYKKQMLTAAHALAVDAKNLLDVIDQARLKMLGQTRPH
[1]
  RhoA activity: TM4SF5 expressed in SNU449 cells inhibited RhoA activity, leading to the elongation of cells
p190RhoGAP, Q9NRY4
  RhoA activity: TM4SF5 expressed in SNU449 cells inhibited RhoA activity, leading to the elongation of cells
